± gives the uncertainty stated by the source.

The data set is described as follows: amyloid nucleation score (Sup35N fusion, yeast selection) (log enrichment); library NNK3; higher = more nucleation; inactive = no reads after selection. In short, it runs like this: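 Nucleation score is defined as the DiMSum log enrichment of output over input reads, with centring on the mode score of non-aggregating sequences. A minimum of 100 input reads was required for each sequence. Reads came from Illumina sequencing of plasmid inserts from psi-negative yeast expressing Sup35N fused to peptides of 20 random codons, induced with 100 μM copper sulfate for 24 hours and grown 7 days at 30°C on medium lacking adenine and uracil.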
With SFNLTNSKYWVR, the amyloid nucleation score result was “inactive”.
With SFNRGRLATLYSSLVHGRLR, the amyloid nucleation score entry was “inactive”.
Substance SFNSNSDDDIIFDALNYTLN displayed an amyloid nucleation score of 0.069 ± 0.62.
SFNVTVRGLSSSN showed an amyloid nucleation score of 0.027 ± 0.47.
For SFPLSYSSYIRLRVFFVE, the amyloid nucleation score entry is “inactive”.
For SFRFVSLVLFAVNDNYGRCW the value was 1.61 ± 0.13; for SFRNKLELFQLVCMHNEPGC, “inactive”; for SFSRPCWLYWAGFLSVVYRC, “inactive”.
The same measure for SFSYFRVSFEYGRCHRYAEN: “inactive”; for SFSYWGKDRSRVSNL: “inactive”.
Regarding SFTIIMALCSV, the amyloid nucleation score entry is “inactive”.
The same measure for SFVKWVKNQHF: “inactive”; for SFVQLMFLFGT: 1.83 ± 0.076; for SFVYCIVYLQSPFVLSTMVG: 2.62 ± 0.078.
The same measure for SGDKSYRSRYHWMGIQRVNR: “inactive”.
For SGIAGECFAM the value was “inactive”.
In the case of SGIYTMVWAFGFDVLYLLVS, the amyloid nucleation score result was “inactive”.
For SGKDIALMVHCVTVMWDQAY the value was “inactive”.
The substance SGLIQNTRR yielded an amyloid nucleation score of -0.428 ± 1.1.
With SGLKQSPQLVLCAVRPRRSN, the amyloid nucleation score result is “inactive”.
The same measure for SGMDSKRKDSCLLCVHFHVS: “inactive”.
The same measure for SGMLKRFSALRGISASVVGV: “inactive”; for SGPGRSACSFYNAIFMRRFQ: “inactive”.
For SGRIRVSKSSTGKSLSTSII the value was “inactive”; for SGVRANFDFLASVAAHPLNS, “inactive”.
Turning to SGVTHDHLTYVLGGGKVVSR, the amyloid nucleation score entry was “inactive”.
The same measure for SHSWQLSYSKSRYVIDAIAR: “inactive”; for SHVWPLLMYHGGIVWSKS: “inactive”; for SIDDGLSYLMGKVKIHKSGK: “inactive”.
The same measure for SIESMCPVYILVVAPEMCR: “inactive”; for SIFPF: “inactive”; for SIFRKINMYL: “inactive”.
For the substance SIGWSLCENRRQPGSRWSLP, the amyloid nucleation score entry is “inactive”.
For SIHLMWRQCYFSLLCVNKGM the value was “inactive”.
For SIILVYKLE the value was “inactive”.
The same measure for SIKFYLRLMTSLKVKLY: “inactive”; for SILGFT: “inactive”.
For SILKGGFCYMNFRSGKWGV, the amyloid nucleation score entry was “inactive”.
For SILLLDSEGSMNLEAIV, the amyloid nucleation score entry is “inactive”.
For SILMMGNLFKLLRKF the value was “inactive”.
The same measure for SILSPYLV: “inactive”; for SIQYIYFDASQMRIENSRSL: 2.37 ± 0.059.
The same measure for SIRVINKRHCCSSGDWREDR: 1.78 ± 0.081; for SIRYFRLSGMMSMYFFCFVV: 0.952 ± 0.14.
SISAALWAFL: the amyloid nucleation score entry is “inactive”.
For SISCKKVGGSKASQRPYKA the value was “inactive”; for SIVICS, “inactive”.
As for SIYCANQRSLVYHYVLAFTT, the amyloid nucleation score result was “inactive”.
The same measure for SIYYSAILMGYWMDVKSLQY: “inactive”; for SKCEMMRTLEESDDVSFVVK: “inactive”.
As for SKCVYAVWCACVFARF, the amyloid nucleation score entry was “inactive”.
The same measure for SKESTNSVRCVFITVSPTRR: 0.976 ± 0.21; for SKFCSGSLFMIRCILGSRYL: “inactive”.
Take SKKPVEMTRNI: the amyloid nucleation score result is “inactive”.
For SKKSRSLNWFLLVNRTPDAG, the amyloid nucleation score entry was “inactive”.
For SKMRRSFCPIWFSRWSFLST the value was “inactive”; for SKWSTEFLTCHT, “inactive”.
The same measure for SKWYLFITGFRYMWFVRFNV: “inactive”.
SLAAIYSFVYFSSDVIRSHY displayed an amyloid nucleation score of 1.34 ± 0.15.
For SLAGEHPRPIVG the value was “inactive”.
The same measure for SLASYLFTVTATNRYCERGA: 0.996 ± 0.12.
For SLCFGTP the value was “inactive”.
Turning to SLCFRSIINIGFFK, the amyloid nucleation score came to 2.15 ± 0.056.
For SLCGLFRYAWYQFEFNDVRA the value was 0.977 ± 0.12.
For SLCSVLIMHPSNSDRF the value was 0.101 ± 0.75; for SLDKSMSGKRSLVRADSTLS, -0.046 ± 0.88; for SLDSYDTDLKGVCCQVFCIK, 3.24 ± 0.062.
For the substance SLEVINVVRININNQEYIYL, the amyloid nucleation score is 0.276 ± 0.23.
The same measure for SLFMMWLYVCQLYCLFDGIE: “inactive”; for SLGLHIWFCTLLAIWTLLLL: “inactive”; for SLGLNTPAREFYWGCILTFG: “inactive”.
The substance SLGQLYDLGSRW yielded an amyloid nucleation score of -0.805 ± 1.7.
For SLKCLLLVMTCSLTSHAPPA the value was “inactive”; for SLKELRVSLSSLCACDSNNN, “inactive”; for SLLRDVKG, -0.487 ± 1.4.
For SLLSEMSTR the value was “inactive”.
For SLLWCKANPKRF the value was “inactive”.
Consider SLMKPKSVMEAKVIRINLCL, for which the amyloid nucleation score came to 0.494 ± 0.28.
For SLMTVRVNHK the value was 0.621 ± 0.2.
For SLRHLDFFRLTGFWHFYALD the value was “inactive”; for SLRRKIGLLIFFDNLIF, “inactive”.
For SLRSCVYPMDDGIMQCWSSR the value was “inactive”; for SLRSYSGILSFYGYSGKIST, “inactive”; for SLSLNIQGSNYFLHIVNIGR, “inactive”.
Regarding SLSTSNLNIKLSPCYSFNRH, the amyloid nucleation score came out at 0.678 ± 0.31.
With SLTGRWSTVGRSMGLNTRGG, the amyloid nucleation score result was “inactive”.
The same measure for SLVAFPLFAGCVIW: “inactive”; for SLVIQKSFRGDGLRVRHGLQ: “inactive”.
SLVSGLRCVWLMFVSNGHQK: the amyloid nucleation score entry is “inactive”.
With SLVTYNVVRSKARNRWIELV, the amyloid nucleation score entry is “inactive”.
For SLYLGWVPAIELLG the value was “inactive”; for SLYMTVGESVPSMSASMYFG, “inactive”.
For SLYRKGRHFGGCSCSIVRFR the value was 0.319 ± 0.78.
SLYRWYVQMRGIR: the amyloid nucleation score result was “inactive”.
The same measure for SMASK: -0.64 ± 0.82.
For SMEIGLGVEIYDVMRFGERM the value was “inactive”; for SMIGQSVEFYLISCYRGLCT, “inactive”.
The same measure for SMLAFDLGGCAQTVTGWW: “inactive”; for SMLISRSEHLRLDTFGDSRY: 0.634 ± 0.13; for SMQGDRWFLVL: “inactive”.
SMRILR: the amyloid nucleation score result is “inactive”.
For SMRSGVLGHIIQTM the value was “inactive”; for SMSAMYDSAIVV, “inactive”.
Consider SMSFTQFKGGGSIIITWCWP, for which the amyloid nucleation score entry is “inactive”.
In the case of SMTHRPTAVHSDVHGQCVKW, the amyloid nucleation score result was “inactive”.
With SNAHMCVRRTAWKNI, the amyloid nucleation score entry was “inactive”.
The same measure for SNCFRILYTCAVAQLPPCMR: “inactive”.
The same measure for SNCSSWSSPV: “inactive”; for SNEHAVVYS: “inactive”; for SNGELTVEHQGLQPLGEKRT: “inactive”.
The same measure for SNGHFAVGDDPEK: “inactive”.
In the case of SNGKVTLYKRLRDTSPQGIY, the amyloid nucleation score result is “inactive”.
For SNGVRSRLLE the value was “inactive”; for SNGWFYFCFVSWWHSSFDGS, “inactive”; for SNHITRFQLESQTIPIISFV, “inactive”.
For SNILAA the value was “inactive”.
For SNITAVYAVVTNIRWLYVRT the value was “inactive”; for SNLRFFVAFLQGRSLN, 0.959 ± 0.23; for SNSRNSTGVVQMTRIPKMMR, “inactive”.
Substance SNTCHLINAKVDPVHERMLS displayed an amyloid nucleation score of 0.176 ± 0.85.
For SNVEYCLYARLYLGCGVCHP the value was 0.176 ± 0.42; for SNVVSSI, “inactive”.
For SNYCCRVSFVIKLLRMVYNF the value was 2.42 ± 0.08; for SNYWNWGRGYVCSRFRELVI, “inactive”.
The same measure for SPDHLGRLLY: “inactive”.
As for SPFEFRCIVESEFCMKNWAG, the amyloid nucleation score worked out at 0.866 ± 0.25.
The same measure for SPRQHARCRTLTLTRTLRPM: “inactive”.
For SQASLFFSGWWILFTYMLGW the value was “inactive”.
With SQFTIVVTAVLVT, the amyloid nucleation score entry is “inactive”.
The same measure for SQLCITNSRW: “inactive”; for SQLQVISKIENSRKVIQRSS: “inactive”.

(Values after the supplement of paper PMC12042874.)
